Results from patent publication US20220348651A1 (Novartis, published 2022).

T1: ENTPD8 of H520 cells (UniProt Q5MY95 1-495, limits assumed)
T1 construct: whole, on cells
T1 sequence (looked up): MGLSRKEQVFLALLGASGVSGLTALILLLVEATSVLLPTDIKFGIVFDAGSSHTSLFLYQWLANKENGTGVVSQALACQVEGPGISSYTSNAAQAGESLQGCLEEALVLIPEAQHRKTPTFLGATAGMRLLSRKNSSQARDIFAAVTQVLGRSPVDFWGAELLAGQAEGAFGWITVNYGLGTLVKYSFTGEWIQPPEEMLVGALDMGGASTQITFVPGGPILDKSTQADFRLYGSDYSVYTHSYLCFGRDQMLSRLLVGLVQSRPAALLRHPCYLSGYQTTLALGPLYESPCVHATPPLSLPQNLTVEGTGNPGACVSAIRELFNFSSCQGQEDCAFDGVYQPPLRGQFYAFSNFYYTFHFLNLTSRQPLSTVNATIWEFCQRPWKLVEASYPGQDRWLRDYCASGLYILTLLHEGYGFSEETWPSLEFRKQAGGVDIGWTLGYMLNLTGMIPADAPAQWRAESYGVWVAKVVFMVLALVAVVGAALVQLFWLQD

T2: ENTPD3 of H520 cells (UniProt O75355 1-529, limits assumed)
T2 construct: whole, on cells
T2 sequence (looked up): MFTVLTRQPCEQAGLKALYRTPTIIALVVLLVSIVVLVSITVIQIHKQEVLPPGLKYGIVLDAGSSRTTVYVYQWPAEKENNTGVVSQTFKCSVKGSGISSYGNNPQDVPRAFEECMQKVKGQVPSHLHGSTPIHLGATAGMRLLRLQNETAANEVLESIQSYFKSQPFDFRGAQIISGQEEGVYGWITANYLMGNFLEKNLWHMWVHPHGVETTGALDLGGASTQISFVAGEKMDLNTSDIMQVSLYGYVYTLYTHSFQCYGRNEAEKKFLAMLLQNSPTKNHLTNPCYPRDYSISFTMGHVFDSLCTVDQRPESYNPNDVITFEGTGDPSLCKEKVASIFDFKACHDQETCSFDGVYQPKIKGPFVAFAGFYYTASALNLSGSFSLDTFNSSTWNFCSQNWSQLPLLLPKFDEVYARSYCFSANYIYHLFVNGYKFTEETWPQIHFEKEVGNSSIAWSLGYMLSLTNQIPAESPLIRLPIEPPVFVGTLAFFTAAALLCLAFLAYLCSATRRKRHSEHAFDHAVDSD

T3: human ENTPD2 expressed on cells (human, UniProt Q9Y5L3 1-495)
T3 sequence: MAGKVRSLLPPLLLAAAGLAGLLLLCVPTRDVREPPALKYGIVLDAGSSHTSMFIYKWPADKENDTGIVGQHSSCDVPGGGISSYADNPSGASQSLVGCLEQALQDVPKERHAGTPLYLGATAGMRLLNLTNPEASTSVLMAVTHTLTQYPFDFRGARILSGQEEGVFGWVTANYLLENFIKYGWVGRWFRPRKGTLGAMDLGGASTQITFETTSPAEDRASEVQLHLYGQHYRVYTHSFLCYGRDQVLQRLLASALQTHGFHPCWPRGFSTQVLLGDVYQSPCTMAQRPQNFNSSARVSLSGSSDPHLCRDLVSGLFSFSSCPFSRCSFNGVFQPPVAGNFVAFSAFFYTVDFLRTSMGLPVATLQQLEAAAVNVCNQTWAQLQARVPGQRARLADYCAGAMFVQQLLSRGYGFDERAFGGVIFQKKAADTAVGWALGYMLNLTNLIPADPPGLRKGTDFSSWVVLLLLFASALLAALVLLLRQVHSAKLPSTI

T4: cyno ENTPD2 expressed on NIH/3T3 cells (cynomolgus macaque, UniProt Q9Y5L3 1-495 (human entry))
T4 chain: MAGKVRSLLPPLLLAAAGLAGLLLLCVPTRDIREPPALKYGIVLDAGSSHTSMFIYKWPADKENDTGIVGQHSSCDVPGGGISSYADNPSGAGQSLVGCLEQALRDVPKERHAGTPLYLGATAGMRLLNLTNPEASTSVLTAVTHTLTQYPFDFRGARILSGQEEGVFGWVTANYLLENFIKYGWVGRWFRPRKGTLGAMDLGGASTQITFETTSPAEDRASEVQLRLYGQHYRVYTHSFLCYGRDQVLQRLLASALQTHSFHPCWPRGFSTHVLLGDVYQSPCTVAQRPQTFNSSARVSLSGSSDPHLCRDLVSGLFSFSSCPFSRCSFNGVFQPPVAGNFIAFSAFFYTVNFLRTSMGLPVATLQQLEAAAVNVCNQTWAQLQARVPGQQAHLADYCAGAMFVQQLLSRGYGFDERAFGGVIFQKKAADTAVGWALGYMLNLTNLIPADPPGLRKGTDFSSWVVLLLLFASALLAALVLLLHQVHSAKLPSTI


Tests used:
ENTPD8 of H520 cells = biological target: T1, ENTPD8 of H520 cells; test: flow cytometry, H520 cells
ENTPD3 of H520 cells = biological target: T2, ENTPD3 of H520 cells; test: flow cytometry, H520 cells
[1] = biological target: T3, human ENTPD2 expressed on cells; test: cell-based or functional assay
[2] = biological target: T4, cyno ENTPD2 expressed on NIH/3T3 cells; test: cell-based or functional assay
[3] = biological target: T4, cyno ENTPD2 expressed on NIH/3T3 cells; test: flow cytometry, NIH3T3 cyno ENTPD2 cells

| Binder | binding result (ENTPD8 of H520 cells) | binding result (ENTPD3 of H520 cells) | % inhibition, Human ENTPD2 NIH/3T3 Assay [1] | % inhibition, RKO Assay [1] | IC50, Human ENTPD2 NIH/3T3 Assay [1] | IC50, RKO Assay [1] | % inhibition, Cyno ENTPD2 NIH/3T3 Assay [2] | IC50, Cyno ENTPD2 NIH/3T3 Assay [2] | EC50 [3] |
| --- | --- | --- | --- | --- | --- | --- | --- | --- | --- |
| ANTI-HUMAN ENTPD2 MAB4 (antibody, human IgG1, kappa, V domains shown, humanized and optimized from mAb16; human IgG1, kappa; also called Anti-ENTPD2 mAb4) VH: QIQLQESGPGLVKPSQTLSLTCTVSGYSITSGYYWNWIRQHPGKGLEWIGYISYDADNNYNPSLKNRVTISRDTSKNQFSLKLSSVTAADTAVYYCAGGYYRYGLGSYRGSYYYVMDYWGQGTTVTVSS VL: ETVLTQSPATLSVSPGERATISCKASQSVDYEGHSYMNWYQQKPGQAPRLLIYAASNLESGIPARFSGSGSGTDFTLTISSVEPEDAATYYCQQSNEDPPTFGGGTKLEIKR | no binding (tested: 50 nM) | no binding (tested: 50 nM) | 87% | 74% | 0.2 nM | 0.2 nM | 75% | 2.2 nM | 6.1 nM |
| ANTI-HUMAN ENTPD2 MAB6 (antibody, human IgG1, kappa, V domains shown, humanized and optimized from mAb16; human IgG1, kappa; also called Anti-ENTPD2 mAb6) VH: QVQLQESGPGLVKPSQTLSLTCTVSGYSITSGYYWNWIRQHPGKGLEWMGYISYDADNNYNPSLKNRITISRDTSKNQFSLKLSSVTAADTAVYYCAGGYYRYGLGSYSGSYYYVMDYWGQGTTVTVSS VL: DTQMTQSPSSLSVSVGDRATITCKASQSVDYEGHSYMNWYQQKPGKAPKLLIYAASNLESGVPSRFSGSGSGTDFTLTISSVQPEDFATYYCQQSNEDPPTFGGGTKLEIKR | no binding (tested: 50 nM) | no binding (tested: 50 nM) | 95% | 90% | 0.3 nM | 0.2 nM | 73% | 3.3 nM | 7 nM |
| ANTI-HUMAN ENTPD2 MAB2 (antibody, human IgG1, kappa, humanized from mAb17; human IgG1, kappa; also called Anti-ENTPD2 mAb2) heavy: not shown light: EIVLTQSPATLSASPGERITLSCSASSSVSYIHWYQQKPGQAPRLLIYSTSNLASGIPARFSGSGSGTFYTLTISSVEPEDAAVYYCHQWSSYPWTFGGGTKLEIKRTVAAPSVFIFPPSDEQLKSGTASVVCLLNNFYPREAKVQWKVDNALQSGNSQESVTEQDSKDSTYSLSSTLTLSKADYEKHKVYACEVTHQGLSSPVTKSFNRGEC | no binding (tested: 50 nM) | no binding (tested: 50 nM) | 98% | 86% | 1.4 nM | 0.8 nM | 84% | 2.7 nM | 4.2 nM |
| ANTI-HUMAN ENTPD2 MAB3 (antibody, human IgG1, kappa, V domains shown, humanized from mAb17; human IgG1, kappa; also called Anti-ENTPD2 mAb3) VH: QVQLVQSGAEVVKPGASVKISCKASGYTFTDYNMDWVKQAPGQRLEWIGDINPKYDISTYNQQFKGKATITVDTSASTAYMELSSLRSEDTAVYYCARRGFFLYYGINYYYFDVWGQGTLVTVSS VL: EIVLTQSPATLSASPGERITLSCSASSSVSYIHWYQQKPGQAPRLLIYSTSNLASGIPARFSGSGSGTFYTLTISSVEPEDAAVYYCHQWSSYPWTFGGGTKLEIKR | no binding (tested: 50 nM) | no binding (tested: 50 nM) | 91% | 95% | 1.8 nM | 1.6 nM | 84% | 5.8 nM | 5.4 nM |

More lines, in order of falling EC50 [3], values ahead:

| binding result (ENTPD8 of H520 cells) | binding result (ENTPD3 of H520 cells) | % inhibition, Human ENTPD2 NIH/3T3 Assay [1] | % inhibition, RKO Assay [1] | IC50, Human ENTPD2 NIH/3T3 Assay [1] | IC50, RKO Assay [1] | % inhibition, Cyno ENTPD2 NIH/3T3 Assay [2] | IC50, Cyno ENTPD2 NIH/3T3 Assay [2] | EC50 [3] | Binder |
| --- | --- | --- | --- | --- | --- | --- | --- | --- | --- |
| no binding (tested: 50 nM) | no binding (tested: 50 nM) | 95% | 80% | 0.3 nM | 0.2 nM | 80% | 1.5 nM | 5.2 nM | ANTI-HUMAN ENTPD2 MAB5 (antibody, human IgG1, kappa, V domains shown, humanized and optimized from mAb16; human IgG1, kappa; also called Anti-ENTPD2 mAb5) VH: QIQLQESGPGLVKPSQTLSLTCTVSGYSITSGYYWNWIRQHPGKGLEWIGYISYDADNNYNPSLKNRVTISRDTSKNQFSLKLSSVTAADTAVYYCAGGYYRYGLGSYRGSYYYVMDYWGQGTTVTVSS VL: ETVLTQSPATLSVSPGERATISCKASQSVDYDGNSYMNWYQQKPGQAPRLLIYAASNLESGIPARFSGSGSGTDFTLTISSVEPEDAATYYCQQSNEDPPTFGGGTKLEIKR |
| no binding (tested: 50 nM) | no binding (tested: 50 nM) | 97% | 95% | 0.1 nM | 0.2 nM | 96% | 0.9 nM | 2.1 nM | ANTI-HUMAN ENTPD2 MAB8 (antibody, human IgG1, lambda, V domains shown, also called Anti-ENTPD2 mAb8) VH: QVQLQQSGPGLVKPSQTLSLTCAISGDSVSSSSAAWNWIRQSPSRGLEWLGRIYYRSKWYNDYAVSVKSRITINPDTSKNQFSLQLNSVTPEDTAVYYCARGSYVTSSYEGFDYWGQGTLVTVSS VL: SYELTQPLSVSVALGQTARITCSGDNLPEKYAYWYQQKPGQAPVLVIYDDNKRPSGIPERFSGSNSGNTATLTISRAQAGDEADYYCQSYGKWGWTWVFGGGTKLTVLG |
| no binding (tested: 50 nM) | no binding (tested: 50 nM) | 92% | 70% | 0.3 nM | 0.1 nM | 71% | 0.3 nM | 1.3 nM | ANTI-HUMAN ENTPD2 MAB9 (antibody, human IgG1, lambda, V domains shown, also called Anti-ENTPD2 mAb9) VH: QVQLVQSGAEVKKPGSSVKVSCKASGGTFDSYAVSWVRQAPGQGLEWMGRIVPWLGHTQYAQKFQGRVTITADESTSTAYMELSSLRSEDTAVYYCARESPGYRYSFDVWDQGTLVTVSS VL: SYELTQPLSVSVALGQTARITCSGDAIGEKYVYWYQQKPGQAPVLVIYDDNNRPSGIPERFSGSNSGNTATLTISRAQAGDEADYYCASYDLQQARWVFGGGTKLTVLG |
| no binding (tested: 50 nM) | no binding (tested: 50 nM) | 95% | 92% | 0.8 nM | 0.6 nM | 82% | 2.7 nM | 0.8 nM | ANTI-HUMAN ENTPD2 MAB7 (antibody, human IgG1, kappa, humanized from mAb17; human IgG1, kappa; also called Anti-ENTPD2 mAb7) heavy: not shown light: EIVLTQSPATLSASPGEEITLSCSASSSVSYIHWYQQKPGQAPRLLIYSTSNLASGIPARFSGSGSGTFYTLTISSVEPEDAAVYYCHQWSSYPWTFGGGTKLEIKRTVAAPSVFIFPPSDEQLKSGTASVVCLLNNFYPREAKVQWKVDNALQSGNSQESVTEQDSKDSTYSLSSTLTLSKADYEKHKVYACEVTHQGLSSPVTKSFNRGEC |
